The values below are quoted from earlier work in publication PMC7020651.

Broadly, the pKd is −log10 of the Kd, conventionally taken in molar units.

pKd: −log10 of the molar value.

In data set [1] the target is Histone H4 (Homo sapiens) (UniProt P62805). Kind of data set: ITC. In general terms: In ITC the heat of successive injections is recorded.
Data set [2] addresses Histone H4 1-12 (Homo sapiens) (UniProt P62805).

Take “TAFII250 tandem bromodomains (from UniProt P21675)”: the pKd in data set [1] is 4.40. For the substance P/CAF bromodomain (from UniProt Q92831), the pKd in data set [2] was 3.46.
